The text below walks through data of publication PMC10578477, “Biochemical and genetic dissection of the RNA-binding surface of the FinO domain of Escherichia coli ProQ”.

The target in series [1] is T1, ProQ NTD WT (FinO domain) (Escherichia coli, UniProt P45577 1-130).
T1 sequence: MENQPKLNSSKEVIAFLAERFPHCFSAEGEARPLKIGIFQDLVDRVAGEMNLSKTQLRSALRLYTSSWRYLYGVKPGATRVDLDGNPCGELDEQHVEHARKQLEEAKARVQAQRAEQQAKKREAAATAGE
Nature of the series: EMSA. The settings on record: EMSA: 25 mM Tris pH 7.5, 150 mM NaCl, 5% glycerol, 1 mM MgCl2, 1 nM 32P-RNA, 30 min RT; microplates pretreated with 0.0025% BSA; 6% gel in 0.5x TBE at 4 C.

Series [2] deals with T1, ProQ NTD WT (FinO domain). Nature of the series: EMSA; EMSA: 25 mM Tris pH 7.5, 150 mM NaCl, 5% glycerol, 1 mM MgCl2, 1 nM 32P-RNA, 30 min RT; microplates pretreated with 0.0025% BSA; 6% gel in 0.5x TBE at 4 C. Particulars: protein: recombinant, tags: His6-TEV removed, N-terminal Ser remains, label: 5'-32P.
Series [3] deals with T1, ProQ NTD WT (FinO domain). The series can be described thus: EMSA; range for five RNAs; EMSA: 25 mM Tris pH 7.5, 150 mM NaCl, 5% glycerol, 1 mM MgCl2, 1 nM 32P-RNA, 30 min RT; microplates pretreated with 0.0025% BSA; 6% gel in 0.5x TBE at 4 C. The settings on record: protein: recombinant; tags: His6-TEV removed, N-terminal Ser remains; label: 5'-32P; terminator hairpin, 8 U 3' tail.

Regarding RybB, in series [1], the Kd is 26 nM.

In the case of gapA-3', in series [1], the equilibrium dissociation constant (Kd) was found to be 14 nM.

B1: cspE-mini (structured_RNA)
RNA: GGAAUUCGGAAGGCGCUUAAUCAGCGCCUUUUUUUU
B1: in series [2] (hairpin with 5' and 3' single-stranded regions), the binding signal was ~1 fold weaker Kd than cspE-3'.

B2: cspE-mini-3'-6U (structured_RNA)
RNA: GGAAUUCGGAAGGCGCUUAAUCAGCGCCUUUUUU
In the case of B2, the binding signal in series [2] (hairpin, 6 U tail (2 predicted single-stranded)) was ~2.5 fold weaker Kd than cspE-mini.

B3: cspE-3' (structured_RNA)
RNA: GUAAGAUACGUCAGCAAGAAUUCAAAACCCGCUUAAUCAGCGGGUUUUUUUU
Consider B3, for which the dissociation constant Kd in series [3] was roughly 6.33 nM.
